The record followed here is US20230106715A1 (BIOSION, published 2023).

For test [1], the target named is T1, mouse Siglec15-his protein (mouse).
T1 construct: In house made
T1 chain: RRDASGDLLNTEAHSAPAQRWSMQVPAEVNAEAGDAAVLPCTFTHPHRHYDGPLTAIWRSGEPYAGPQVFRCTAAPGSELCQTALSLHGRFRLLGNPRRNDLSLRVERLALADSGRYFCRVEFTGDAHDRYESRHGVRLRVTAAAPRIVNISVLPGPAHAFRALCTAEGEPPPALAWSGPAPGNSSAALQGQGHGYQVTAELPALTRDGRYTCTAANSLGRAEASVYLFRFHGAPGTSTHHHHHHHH
As to the kind of experiment: indirect ELISA on coated mouse Siglec15-his. Here is the method: The anti-Siglec15 antibodies' cross-reactions to cynomolgus or mouse Siglec15 proteins were measured. Briefly, 96-well micro plates were coated with 100 μl of 2 μg/ml cynomolgus Siglec15-his protein (in house made with SEQ ID NO: 21), or 2 μg/ml mouse Siglec15-his protein (in house made with SEQ ID NO: 22) in carbonate/bicarbonate buffer (pH 9.6) for 2 hours at 37° C. ELISA plates were washed once with wash buffer (PBS+0.05% v/v Tween-20, PBST) and then blocked with 200 μl/well blocking buffer (5% w/v non-fatty milk in PBST) overnight at 4° C. Plates were washed 4 times and incubated with 100 μl serially diluted anti-Siglec15 antibodies of the disclosure or controls (starting at 66.7 nM, 5-fold serial dilution in PBST with 2.5% w/v non-fatty milk) for 40 minutes at 37° C. ELISA plates were washed 4 times again and incubated with Peroxidase AffiniPure Goat Anti-Human IgG, F(ab)₂ fragment specific (1:5000 dilution in PBST buffer, Jackson Immunoresearch, Cat #109-035-097, 100 μl/well) for 40 minutes at 37° C. After a final wash, plates were incubated with 100 μl/well TMB (Innoreagents, Cat #TMB-S-002). The reaction was stopped 4 minutes later at room temperature with 50 μl 1M H₂SO₄, and the absorbance of each well was read on a microplate reader using dual wavelength mode with 450 nm for TMB and 630 nm as the reference wavelength, then the OD (450-630) values were plotted against antibody concentration. Data was analyzed using Graphpad Prism software and EC₅₀ values were reported.

Test [2] concerns the target T1, mouse Siglec15-his protein. As to the kind of experiment: SPR Biacore T200, antibody captured by anti-mouse IgG, antigen as analyte, 1:1 fit. Here is the method: (§1) Briefly, goat anti-mouse IgG (GE healthcare, Cat #BR100838, Mouse Antibody Capture Kit) was covalently linked to a CM5 chip (carboxy methyl dextran coated chip from GE healthcare, Cat #BR100530) via primary amines using a standard amine coupling kit (GE healthcare, Pittsburgh, Pa., USA) provided by Biacore. Un-reacted moieties on the biosensor surface were blocked with ethanolamine. The purified mouse anti-Siglec15 antibodies of the disclosure at the concentration of 13.3 nM, were respectively flowed onto the chip at a flow rate of 10 μL/min. Then, serially diluted human Siglec15-his protein (in house made, amino acid sequence set forth in SEQ ID NO: 20), cynomolgus monkey Siglec15-his protein (in house made, amino acid sequence set forth in SEQ ID NO: 21), or mouse Siglec15-his protein (in house made, amino acid sequence set forth in SEQ ID NO: 22), 2-fold dilution in HBS-EP⁺ buffer (provided by Biacore) starting at 80 nM, were flowed onto the chip at a flow rate of 30 μL/min. The antigen-antibody association kinetics was followed for 2 minutes and the dissociation kinetics was followed for 10 minutes. The association and dissociation curves were fit to a 1:1 Langmuir binding model using BIAcore evaluation software.

For test [3], the target named is T2, recombinant human Siglec15-his protein (human, UniProt Q6ZMC9 20-263).
T2 construct: In house made; Biotin-labeled in the capture ELISA
T2 sequence: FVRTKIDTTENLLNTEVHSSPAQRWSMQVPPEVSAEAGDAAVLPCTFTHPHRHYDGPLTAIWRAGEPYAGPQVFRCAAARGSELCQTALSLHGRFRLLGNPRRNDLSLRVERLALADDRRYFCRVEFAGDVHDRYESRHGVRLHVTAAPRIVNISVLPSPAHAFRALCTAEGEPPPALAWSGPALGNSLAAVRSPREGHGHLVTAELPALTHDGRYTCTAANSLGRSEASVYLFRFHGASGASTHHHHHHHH
Described as above. Here is the method:
as §1

In test [4] the target is T3, cynomolgus monkey Siglec15-his protein (cynomolgus monkey).
T3 construct: In house made; also called Cynomolgus Siglec15-his; cynomolgus Siglec15
T3 chain: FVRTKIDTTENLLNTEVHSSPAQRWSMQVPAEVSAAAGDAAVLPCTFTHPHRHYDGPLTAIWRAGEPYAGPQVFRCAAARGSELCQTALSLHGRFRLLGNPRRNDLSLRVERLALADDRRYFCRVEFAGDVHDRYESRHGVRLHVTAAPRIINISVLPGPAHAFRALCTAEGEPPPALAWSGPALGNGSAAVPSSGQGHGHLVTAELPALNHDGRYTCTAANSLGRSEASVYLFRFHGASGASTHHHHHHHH
The test is described as above. Here is the method: as §1

B1: A2A5C7E8 (antibody, V domains shown)
VH: EVQLVQSGAEVKKPGESLRISCKGSGYSFTTYWISWVRQMPGKGLEWMGLIDPSDSYTNYSPSFQGHVTISTDKSISTAYLQWSSLKASDTAMYYCARGGYYGSEEDYWGQGTLVTVSS
VL: EIVLTQSPGTLSLSPGERATLSCRASQSVSSSRLAWFQQKSGQAPRLLIFDASSRATGIPDRFSGSGSGTDFTLTISRLEPEDFAVYYCQQYGSSPRTFGQGTKVEFK
notes: Fully human antibody from transgenic mouse hybridoma; also called A2A5C7E8-1
In the case of B1, the EC50 in test [1] came out at 139 pM.

B2: A2A5C7E8-2 (antibody, human IgG1, kappa, V domains shown)
VH: EVQLVQSGAEVKKPGESLRISCKGSGYSFTTYWISWVRQMPGKGLEWMGLIDPSESYTNYSPSFQGHVTISTDKSISTAYLQWSSLKASDTAMYYCARGGYYGSEEDYWGQGTLVTVSS
VL: EIVLTQSPGTLSLSPGERATLSCRASQSVSSSRLAWFQQKSGQAPRLLIFDASSRATGIPDRFSGSGSGTDFTLTISRLEPEDFAVYYCQQYGSSPRTFGQGTKVEFKR
notes: Variant of A2A5C7E8 modified in VH CDR2 (X1 = E)
Take B2: it took 151 pM to reach a half-maximal effect in test [1] (EC50).

B3: A2A5C7E8-3 (antibody, human IgG1, kappa, V domains shown)
VH: EVQLVQSGAEVKKPGESLRISCKGSGYSFTTYWISWVRQMPGKGLEWMGLIDPSDSYTNYSPSFKGHVTISTDKSISTAYLQWSSLKASDTAMYYCARGGYYGSEEDYWGQGTLVTVSS
VL: EIVLTQSPGTLSLSPGERATLSCRASQSVSSSRLAWFQQKSGQAPRLLIFDASSRATGIPDRFSGSGSGTDFTLTISRLEPEDFAVYYCQQYGSSPRTFGQGTKVEFKR
notes: Variant of A2A5C7E8 modified in VH CDR2 (X2 = K)
Molecule B3 gave a concentration for a half-maximal effect (EC50) in test [1] of 158 pM.

B4: anti-Siglec15 benchmark (ch5G12) (antibody, human IgG1, kappa, V domains shown)
VH: QVQLQQPGAELVKPGASVKMSCKASGYTFTSYWITWVIQRPGQGLEWIGDIYCGSDTMHYNEKFKNKATLTVDTSSSTAYMQLSSLTSEDSAVYYCARWWDYGSSYDYFDYWGQGTTLTVSS
VL: DIKMTQSPSSMYASLGERVTITCKASQDINSYLSWFQQKPGKSPKTLIYRANRLVDGVPSRFSGSGSGQDYSLTISSLEYEDMGIYYCLQYDEFPYTFGGGTKLEIKR
notes: ch5G12 (US 20190202912A1); also called BM; Siglec15-ch5G9
On to B4, for which the EC50 in test [1] was 276 pM.

B5: B2D7H7A3C1 (antibody, V domains shown)
VH: QVQLQQSGAELVRPGTSVQMSCKAAGYTFTNYWIGWVKQRPGHGLEWVGDIHPGINYTNNNEKFRGKATLTADTSSNTAYMQLRGLTSDDSAIYYCARVDYDYDGSYIMDYWGQGTSVTVSS
VL: QIVLSQSPALLSASPGEKVTMTCRASSSVSYMYWYQQKPGSSPKPWIYATSNLTSGVPARFSGSGSGTSYSLTISRVEAEDAATYFCQQWNSKPWTFGGGSKLEIR
notes: Mouse monoclonal antibody from hybridoma; also called mouse B2D7H7A3C1
In test [2], B5 came in with a Kd of 337 pM, a koff of 0.00445 s⁻¹ and an on-rate constant (kon) of 1.32e+07 M⁻¹ s⁻¹. Further, in test [3], the Kd was 35.2 pM, the koff stood at 5.46e-05 s⁻¹ and the kon was determined as 1.55e+06 M⁻¹ s⁻¹. In test [4], this molecule yielded a Kd of 476 pM, a koff of 0.000338 s⁻¹ and a kon of 711000 M⁻¹ s⁻¹.

B6: B2H2H1H7 (antibody, V domains shown)
VH: QVQLQQSGAELVRPGTSVQMSCKAAGYTFTNYWIGWVKQRPGHGLEWVGDIHPGINYTNNNEKFRGKATLTADTSSSTAYMQLRGLTSDDSAIYYCARVDYDYDGSYIMDYWGQGTSVTVSS
VL: QIILSQSPALLSASPGEKVTMTCRASSSVSYMYWYQQKPGSSPKPWIYATSNLTSGVPARFSGSGSGTSYSLTISRVEAEDAATYFCQQWNSKPWTFGGGSRLEIR
notes: Mouse monoclonal antibody from hybridoma; also called mouse B2H2H1H7; B2H2H1A7
B6: in test [2], the affinity, expressed as Kd, was 390 pM; the dissociation rate constant (koff) worked out at 0.00737 s⁻¹; the kon is 1.89e+07 M⁻¹ s⁻¹. Further, in test [3], the Kd was 16 pM, the koff came out at 3.18e-05 s⁻¹ and the kon came to 1.99e+06 M⁻¹ s⁻¹. In test [4], this molecule displayed a Kd of 405 pM, a koff of 0.000352 s⁻¹ and a kon of 869000 M⁻¹ s⁻¹.

B7: B2G12H3E8 (antibody, V domains shown)
VH: QVQLKQSGAELVRPGTSVQMSCKAVGYTFTNYWIGWVKQRPGHGLEWVGDIHPGINYTNNNEKFRGKATLTADTSSSTAYMQLRGLTSDDSAIYYCARVDYDYDGSYIMDYWGQGTSVTVSS
VL: QIVLSQSPALLSASPGEKVTMTCRASSSVSYMYWYQQKPGSSPKPWIYATSNLTSGVPARFSGSGSGTSYSLTISRVEAEDAATYFCQQWNSKPWTFGGGSKLEIR
notes: Mouse monoclonal antibody from hybridoma; also called mouse B2G12H3E8
Take B7: in test [2], binding was characterised by a dissociation constant (Kd) of 423 pM, the dissociation rate constant (koff) was 0.0108 s⁻¹ and the kon was determined as 2.55e+07 M⁻¹ s⁻¹. Moreover, in test [3], the Kd stood at 8.58 pM, the koff was 1.76e-05 s⁻¹ and the kon turned out to be 2.05e+06 M⁻¹ s⁻¹. Moreover, in test [4], the Kd was 372 pM, the koff amounted to 0.000371 s⁻¹ and the kon is 996000 M⁻¹ s⁻¹.
